Source: IntAct's records for PubMed 22745600

B1: Pre-B-cell leukemia transcription factor 1 (Mus musculus), P41778 (parent)
chain: MDEQPRLMHSHAGVGMAGHPGLSQHLQDGAGGTEGEGGRKQDIGDILQQIMTITDQSLDEAQARKHALNCHRMKPALFNVLCEIKEKTVLSIRGAQEEEPTDPQLMRLDNMLLAEGVAGPEKGGGSAAAAAAAAASGGAGSDNSVEHSDYRAKLSQIRQIYHTELEKYEQACNEFTTHVMNLLREQSRTRPISPKEIERMVSIIHRKFSSIQMQLKQSTCEAVMILRSRFLDARRKRRNFNKQATEILNEYFYSHLSNPYPSEEAKEELAKKCGITVSQVSNWFGNKRIRYKKNIGKFQEEANIYAAKTAVTATNVSAHGSQANSPSTPNSAGSSSSFNMSNSGDLFMSVQSLNGDSYQGAQVGANVQSQVDTLRHVISQTGGYSDGLAASQMYSPQGISANGGWQDATTPSSVTSPTEGPGSVHSDTSN
B2: Homeobox protein extradenticle (Drosophila melanogaster (Fruit fly)), P40427 (parent)
chain: MEDPNRMLAHTGGMMAPQGYGLSGQDDGQNAGSENEVRKQKDIGEILQQIMSISEQSLDEAQARKHTLNCHRMKPALFSVLCEIKEKTVLSIRNTQEEEPPDPQLMRLDNMLIAEGVAGPEKGGGGAAAASAAAASQGGSLSIDGADNAIEHSDYRAKLAQIRQIYHQELEKYEQACNEFTTHVMNLLREQSRTRPITPKEIERMVQIIHKKFSSIQMQLKQSTCEAVMILRSRFLDARRKRRNFSKQASEILNEYFYSHLSNPYPSEEAKEELARKCGITVSQVSNWFGNKRIRYKKNIGKAQEEANLYAAKKAAGASPYSMAGPPSGTTTPMMSPAPPQDSMGYPMGSGGYDQQQPYDNSMGGYDPNLHQDLSP

What was measured:
hxb8_mouse Hoxb8, P09632 = variants of: B1; settings: with hxb8_mouse Hoxb8, P09632
lab_drome lab, P10105 = variants of: B2; settings: with lab_drome lab
abdb_drome Abd-B, P09087 = variants of: B2; settings: with abdb_drome Abd-B
ubx_drome Ubx, P83949 = variants of: B2; settings: with ubx_drome Ubx
abda_drome abd-A, P29555 = variants of: B2; settings: with abda_drome abd-A
abda_drome abd-A, P29555, sequence (P29555 whole entry): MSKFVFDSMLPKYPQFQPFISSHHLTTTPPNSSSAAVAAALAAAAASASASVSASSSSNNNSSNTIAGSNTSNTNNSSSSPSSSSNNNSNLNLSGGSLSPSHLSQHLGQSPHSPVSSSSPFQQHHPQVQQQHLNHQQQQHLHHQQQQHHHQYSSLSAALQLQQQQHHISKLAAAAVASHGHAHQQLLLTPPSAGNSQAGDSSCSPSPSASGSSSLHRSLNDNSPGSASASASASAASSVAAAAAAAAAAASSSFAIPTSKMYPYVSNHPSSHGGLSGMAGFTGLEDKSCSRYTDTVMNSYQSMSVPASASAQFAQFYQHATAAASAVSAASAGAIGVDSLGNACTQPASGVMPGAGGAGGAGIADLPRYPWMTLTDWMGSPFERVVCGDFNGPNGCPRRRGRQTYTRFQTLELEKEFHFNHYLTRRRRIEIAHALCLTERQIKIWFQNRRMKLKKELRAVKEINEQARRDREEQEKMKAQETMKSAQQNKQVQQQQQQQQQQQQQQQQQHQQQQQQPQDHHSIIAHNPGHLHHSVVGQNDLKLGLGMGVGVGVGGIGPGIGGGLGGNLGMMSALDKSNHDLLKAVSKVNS

hxb8_mouse Hoxb8, P09632, sequence (P09632 whole entry): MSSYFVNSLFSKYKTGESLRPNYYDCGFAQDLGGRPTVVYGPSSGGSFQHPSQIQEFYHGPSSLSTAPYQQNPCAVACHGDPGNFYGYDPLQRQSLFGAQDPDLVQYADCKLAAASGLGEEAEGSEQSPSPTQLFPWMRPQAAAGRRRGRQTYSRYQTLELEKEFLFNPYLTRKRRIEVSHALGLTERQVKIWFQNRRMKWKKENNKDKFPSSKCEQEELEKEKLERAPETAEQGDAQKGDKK
ubx_drome Ubx, P83949, sequence (P83949 whole entry): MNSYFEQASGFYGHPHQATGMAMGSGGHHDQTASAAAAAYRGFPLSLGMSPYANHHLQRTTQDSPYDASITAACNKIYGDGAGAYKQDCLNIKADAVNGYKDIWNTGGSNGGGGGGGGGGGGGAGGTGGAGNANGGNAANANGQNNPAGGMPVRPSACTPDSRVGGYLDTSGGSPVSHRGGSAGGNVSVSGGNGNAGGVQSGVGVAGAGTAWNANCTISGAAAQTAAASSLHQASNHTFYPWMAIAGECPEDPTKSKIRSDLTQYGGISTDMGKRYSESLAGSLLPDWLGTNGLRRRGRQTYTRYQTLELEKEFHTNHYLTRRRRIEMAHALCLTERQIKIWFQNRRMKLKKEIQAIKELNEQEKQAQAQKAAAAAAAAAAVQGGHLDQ
lab_drome lab, P10105, sequence (P10105 whole entry): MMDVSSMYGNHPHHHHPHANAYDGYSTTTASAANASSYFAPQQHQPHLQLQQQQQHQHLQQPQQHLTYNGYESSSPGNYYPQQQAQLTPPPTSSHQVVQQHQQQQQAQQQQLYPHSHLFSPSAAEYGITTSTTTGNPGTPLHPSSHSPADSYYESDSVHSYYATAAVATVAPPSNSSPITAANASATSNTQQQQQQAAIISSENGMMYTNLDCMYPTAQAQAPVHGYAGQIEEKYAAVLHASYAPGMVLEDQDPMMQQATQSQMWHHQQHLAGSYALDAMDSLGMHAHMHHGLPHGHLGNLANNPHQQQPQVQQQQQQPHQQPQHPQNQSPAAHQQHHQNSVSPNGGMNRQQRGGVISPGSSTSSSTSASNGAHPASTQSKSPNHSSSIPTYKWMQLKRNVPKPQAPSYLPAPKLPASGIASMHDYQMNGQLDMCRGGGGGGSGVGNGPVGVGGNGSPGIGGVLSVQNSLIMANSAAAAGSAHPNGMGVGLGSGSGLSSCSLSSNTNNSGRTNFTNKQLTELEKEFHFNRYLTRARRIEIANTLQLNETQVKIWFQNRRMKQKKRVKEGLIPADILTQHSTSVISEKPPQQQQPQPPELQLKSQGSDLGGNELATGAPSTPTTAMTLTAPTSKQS

effect of a mutation on the interaction (hxb8_mouse Hoxb8, P09632) | effect of a mutation on the interaction (lab_drome lab, P10105) | effect of a mutation on the interaction (abdb_drome Abd-B, P09087) | effect of a mutation on the interaction (ubx_drome Ubx, P83949) | effect of a mutation on the interaction (abda_drome abd-A, P29555) | Variant
disrupting interaction strength |  |  |  |  | N282A
 | decreasing interaction strength | disrupting interaction strength | decreasing interaction strength | decreasing interaction strength | N287A
